The nanobody polyreactivity screen of Harvey et al. (2022)

Assay: yeast display, Sf9 membrane polyspecificity reagent, FACS + sequencing; frameworks hold sequencing errors
Method in brief: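 Genes from sorted yeast were amplified by colony PCR, read by MiSeq 2 × 250 sequencing and filtered on CDR length. These cells carried a synthetic nanobody library in Saccharomyces cerevisiae BJ5465 and were sorted by FACS into low and high (top ~1%) gates on anti-HA and streptavidin fluorescence. Polyreactivity is labelled according to the gate of origin.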

| Sequence | polyreactivity (PSR sort gate) |
| --- | --- |
| QVQLVESGGGLVQAGGSLRLSCAASGFTFKGNAMGWYRQAPGKERELVAGISRSGRTYYADSVKGRFTISRDNAKNTVYLQMNSLKPEDTAVYYCNARNQGWASLPTMGYWGQGTQVTVSS | high polyreactivity |
| QVQLVESGGGLVQAGGSLRLSCAASGFTFKGNAMGWYRQAPGKERELVATITQSAGSTYYADSVKGRFTISRDNAKNTVYLQMNSLKPEDTAVYYCAAYLSETRPYLYDYWGQGTQVTVSS | low polyreactivity |
| QVQLVESGGGLVQAGGSLRLSCAASGFTFKKYAMGWSRQAPGKERELVASITWSGGSTSYADSVKGRFTISRDNAKNSVYLQMNSLKPEDTAVFYCAAATFVYRLGYNRFDYWGQGTQVTVSS | high polyreactivity |
| QVQLVESGGGLVQAGGSLRLSCAASGFTFKLNAMGWYRQAPGKERELVAAISWGGGTTYYADSVKGRFTISRDNAKNTVYLQMNSLKPEDTAVYYCAADGTGTYDYWGQGTQVTVSS | low polyreactivity |
| QVQLVESGGGLVQAGGSLRLSCAASGFTFKLYAMGWYRQAPGKERELVAAISSSGGRTYYADSVKGRFTISRDNAKNTVYLQMNSLKPEDTAVYYCNAVRTVNDYHYDYWGQGTQVTVSS | high polyreactivity |
| QVQLVESGGGLVQAGGSLRLSCAASGFTFKLYAMGWYRQSPGKVRELVAAISSSGGRTYYADSVKGRFTISRDNAKYTVYLQMNSLKPEDTAVYYCNAVRTVNDYHYDYWGQGSQVTVSS | high polyreactivity |
| QVQLVESGGGLVQAGGSLRLSCAASGFTFKRNAMGWYRQAPGKERELVASITSRGGSTDYADSVKGRFTISRDNAKNTVYLQMNSLKPEDTAVYYCAAVKYVVYYRSDYWGQGTQVTVSS | high polyreactivity |
| QVQLVESGGGLVQAGGSLRLSCAASGFTFKRYAMGWFRQAPGKERELVSTITSRGGSTYYADSVKGRFTISRDNAKNTVYLQMNSLKPEDTAVYYCVRRYPGLPGWSSYGSYESGYWGQGSQVTVSS | high polyreactivity |
| QVQLVESGGGLVQAGGSLRLSCAASGFTFKYNAMGWYRQAPGKERELVAAISSSGSTNYADSVKGRFTISRDNAKNTVYLQMNSLKPEDTAVYYCAARWRSVLAAGTRPVSFDYWGQGTQVTVSS | low polyreactivity |
| QVQLVESGGGLVQAGGSLRLSCAASGFTFKYNAMGWYRQAPGKERELVAAITASGGSTRYADSVKARFTISRDNAKNTVYLQMNSLKPEDTAVNYCAARKWFPRYSASPRSHGPYDYWGLGTQVTVSS | high polyreactivity |
| QVQLVESGGGLVQAGGSLRLSCAASGFTFKYNAMGWYRQAPGKERELVASISSGSTNYADSVKGRFTISRDNAKNTVYLQMNSLKPEDTAVYYCAASVSRGKRFRYGYVFKLDYWGQGTQVTVSS | low polyreactivity |
| QVQLVESGGGLVQAGGSLRLSCAASGFTFKYYAMGWYRQAPGKERELVAAISSRGGSTYYADSVKGRFTISRDKAKNTVYLQMNSLKPEDTAVYYCAAYYRTGSIWYAIFSDDYWGQGTQVTVSS | high polyreactivity |
| QVQLVESGGGLVQAGGSLRLSCAASGFTFKYYAMGWYRQAPGKERELVAAITKRGGSTYYADSVKGRFTISRDNAKNTVYLQMNSLKPEDTEVYYCAAYYKSTYVPGDYWGQGTQVTVSS | high polyreactivity |
| QVQLVESGGGLVQAGGSLRLSCAASGFTFKYYAMGWYRQAPGKERELVARISWSGGSTYYADSVKGRFTISRDNAKNTFFLQMNSLKPEDTAVYYCNTDFGYGFDYWGQGTQVSVSS | high polyreactivity |
| QVQLVESGGGLVQAGGSLRLSCAASGFTFKYYAMGWYRQAPGKERELVATITSGGRTNYADSVKGRFTISRDNAKNTVYLQMNSLKPEDTAVYYCATPYSAYWQNERDYWGQGTQVTVSS | high polyreactivity |
| QVQLVESGGGLVQAGGSLRLSCAASGFTFKYYDMGWYRQAPGKERELVAAIDTSGGNTYYADSVKGRFTISRDYAKNTVYLQMNSLKPEDTAVYYCAATVPYYHDDYWGQGTQVTVSS | low polyreactivity |
| QVQLVESGGGLVQAGGSLRLSCAASGFTFKYYVMGWYRQAPGKERELVASISKRGGSTRYADSVKGRFTISLDNAKNTVYLQMNSLKPEDTAVYYCAAEYWYYWEYEYWGQGTQVTVSS | high polyreactivity |
| QVQLVESGGGLVQAGGSLRLSCAASGFTFLAYPMGRYRQAPGKERELVAAISKSGGSTYYADSVKGRFTISRDNAKITVYLQMNSLKPDDTAVYYSNAGRRIKFYGSYDYWGQGSQVTVSS | high polyreactivity |
| QVQLVESGGGLVQAGGSLRLSCAASGFTFLDYALGWYIQAPGKERELVASISSSGGSTRYADSVKGRFTISRDNAKNTVYLQMNSLKPEDTAVYYCNAQIAEVPNDYWGQGPQVTVSS | low polyreactivity |
| QVQLVESGGGLVQAGGSLRLSCAASGFTFLIYAMGWYRQAPGKERELVAAITWRGSGTYYADSVKGRFTLSRDNAKNTVYLQMNSLKPEDTAVYYCAARTARRTFDYWGQGTQVTVSS | low polyreactivity |
| QVQLVESGGGLVQAGGSLRLSCAASGFTFLPAYAMGWYRQAPGKERELVAAITRGGSTYYADSVKGRFTISRDNAKNTVYLQMNSLKPEDTAVYYCNADQKFGFYRSVGDDYWGQGTQVTVSS | low polyreactivity |

| Sequence | polyreactivity (PSR sort gate) |
| --- | --- |
| QVQLVESGGGLVQAGGSLRLSCAASGFTFLRNAMGWYRQAPGKERELVATISTSGGSTYYADSVKGRFTISRDNAKITVYLQMNSLKPEDTAVYYCAKRYRTRDSGYDYWGQGTQVTVSS | high polyreactivity |
| QVQLVESGGGLVQAGGSLRLSCAASGFTFLRYAMGWYRQAPGKESELVAAISTSGGSTSYADSVKGRFTISRDNAKNTVYLQMNSLKPEDTAVYYCNAVLYKVSISEYDYWGQGTQVTVSS | high polyreactivity |
| QVQLVESGGGLVQAGGSLRLSCAASGFTFLSYTMGWYRQEPGKERELVASITASGTRTYYADSVKGRFTISRDNAKNTVYLQMNSLKPDDTAVYYCAARRSGSGSHDYGYWGQGTQVTVSS | low polyreactivity |
| QVQLVESGGGLVQAGGSLRLSCAASGFTFNAMGWYRQAPGKERELVARIDSDDTTNYADSVKGRFTISRDNAKNTVYLQMNSLKPEDTAVYYCNKDYAWLSYQHYDYWGQGTQVTVSS | low polyreactivity |
| QVQLVESGGGLVQAGGSLRLSCAASGFTFNDYAMGWYRQAPGKERELVAAIDWSGGRTYYADSVKGRFTISRDNAKNTVYVQMNSLKPEDTAVYYCAAVLYSRLYWYRLDYWGQGTQVTVSS | low polyreactivity |
| QVQLVESGGGLVQAGGSLRLSCAASGFTFNEYAMGWYRQAPGKERELVAAITWGGASTYYADSVKGRFTISRDNAKNTVYLQMNSLKPEDTAVYYCVFVYVYDYYYWGQGTQVTVSS | high polyreactivity |
| QVQLVESGGGLVQAGGSLRLSCAASGFTFNFNAMGCYIQAPGKERELLAAIRYRGGSTNYADSVKGSFTISRDNAKNTVYVMMNSLKPEDTAVYYCNVYYYRTYSHVLPGYEYWGQGTQVPVSS | high polyreactivity |
| QVQLVESGGGLVQAGGSLRLSCAASGFTFNNYAMGWYRQAPGKERELVAAISSGAGTYYADSVKGRFTISRDNAKNTVYLQMNSLKPEDTAVYYCNASLKYQGRTRITYRDDYWGQGTQVTVSS | low polyreactivity |
| QVQLVESGGGLVQAGGSLRLSCAASGFTFNPYAMGWYRQAPGKERELVAAITSGGSTNYADSVKGRFTISRDNAKNTVYLQMNSLKPEDTAVYYCAADSRGYGDDSWGQGTKVTVSS | low polyreactivity |
| QVQLVESGGGLVQAGGSLRLSCAASGFTFNQYAMGWYRQAPGKERELVAAITGSGGSTYYADSVKGRFTISRDNAKNTVYLQMNSLKPEDTAVYYCNRDRFSRFYWGQGTQVTVSS | high polyreactivity |
| QVQLVESGGGLVQAGGSLRLSCAASGFTFNRYAMGWYRQAPGKERELVAAISARGGITYYADSVKGRFTISRDNAKNTVYLQMNSLKPEDTAVYYCNKRYSSWSGEHDYWGQGTQVTVSS | high polyreactivity |
| QVQLVESGGGLVQAGGSLRLSCAASGFTFNRYTMGWYRQAPGKERELVASISVRGSRTYYADSVKGRFTISRDNAKNTVYLQMNSLKPEDTAVYYCNAKTYVFYRLRSYYYWGQGTQVTVSS | high polyreactivity |
| QVQLVESGGGLVQAGGSLRLSCAASGFTFNVNAMGWYRQAPGKERELVATITWSDGSTRYADSVKGRFTISRDNAKNTVYLQMNSLKPEDTAVYYCAAESSECTSGDYDYWGQCTQVTVSS | low polyreactivity |
| QVQLVESGGGLVQAGGSLRLSCAASGFTFNYYAMGGYRPAPGKERELVAAISTGGSTYYADSVKGRFTFSRDNAKNTVYLQMISLKPEDTAVYYCNAKPRYRKADRLDYWGQGTQVTVSS | high polyreactivity |
| QVQLVESGGGLVQAGGSLRLSCAASGFTFPDYAMGWYRQAPGKEREMVAAISSDGSTYYADSVKGRFTISRDNAKNTVYLQMNSLKPEDTAVYYCAAYVVWLYGYDYWGQGTLVTVSS | low polyreactivity |
| QVQLVESGGGLVQAGGSLRLSCAASGFTFPENAMGWYRQAPGKERELVAAISYRGASTFYADSVKGRFTISRDNAKNTVYLQMNSLKPEDTAVYYCATDPRIRYQGNPYDYWGQGTKVTVSS | high polyreactivity |
| QVQLVESGGGLVQAGGSLRLSCAASGFTFPFYAMGWYRQAPGKERELVAPISRSGTRTYYADSVKGRFTISRDNAKNTVYLQMNSLKPEDTAVYYCAAAYHNGYLSEGYWEHYYWGQGTQVTVSS | high polyreactivity |
| QVQLVESGGGLVQAGGSLRLSCAASGFTFPGNTMGWYRQAPGKERELVAVISRSGGRSYYADSVKGRFTISRDNAKNTVYLQMNSLKPEDTAVYYCAADTSVRFDYWGQGTQVTVSS | high polyreactivity |
| QVQLVESGGGLVQAGGSLRLSCAASGFTFPHYAMGWYRQAPGKERELVARIRWGGGSTYYADSVKGRFTISRDNAKNTVYLQMNSLKPEDTAVYYCARTTSYLTSTRRYYYWGQGTQVTVSS | high polyreactivity |
| QVQLVESGGGLVQAGGSLRLSCAASGFTFPIYAMGLSRQAPGKERELVAAITTPGGRTYYADSVKGRFTISRDNAKNPVYLQLNSLKPEDTAVYYCNAQGYAYRLWFGYWGQGTQVTVSS | high polyreactivity |
